Source: patent US20250163164A1 (LANOVA MEDICINES DEVELOPMENT, published 2025)
Residue numbers refer to the chain shown, from its start.

T1: human interleukin 13 receptor subunit alpha 2 (IL-13RA2) (human, UniProt Q14627 27-380)
T1 construct: whole, on cells; also called IL-13Rα2; CD213A2
T1 sequence (looked up): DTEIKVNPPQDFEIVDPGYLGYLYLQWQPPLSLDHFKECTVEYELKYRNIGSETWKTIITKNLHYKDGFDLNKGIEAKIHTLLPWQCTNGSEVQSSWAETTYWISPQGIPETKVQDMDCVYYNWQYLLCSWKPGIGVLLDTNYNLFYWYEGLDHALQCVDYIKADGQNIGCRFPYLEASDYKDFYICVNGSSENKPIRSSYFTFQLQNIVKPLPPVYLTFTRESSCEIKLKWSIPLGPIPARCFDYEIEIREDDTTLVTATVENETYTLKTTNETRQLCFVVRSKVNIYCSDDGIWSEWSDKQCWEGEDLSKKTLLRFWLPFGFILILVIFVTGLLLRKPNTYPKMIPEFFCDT

B1: 57F8H3F1 H1L3 hIgG1 (antibody, V domains shown)
VH: QVQLVQSGAEVKKPGASVKVSCKASGYTFTNYWMNWVRQAPGQGLEWMGRIDAYETETHYNQKFRDRVTMTRDTSTSTVYMELSSLRSEDTAVYYCARGYGHYYGVDYWGQGTLVTVSS
VL: DIQLTQSPSSLSASVGDRVTITCRASENVGNFGISFVNWFQQKPGKAPKLLIYAASNLGSGDPARFSGSGSGTDFTLTISSLQPEDFATYFCQQSKGVPWTFGGGTKVEIK
notes: humanized, hIgG1
B2: 57F8H3F1 H4L4 hIgG1 (antibody, V domains shown)
VH: QVQLVQSGAEVVKPGASVKLSCKASGYTFTNYWMNWVKQRPGQGLEWIGRIDAYETETHYNQKFRDRAILTVDKSTSTAYMELRSLRSEDTAVYYCARGYGHYYGVDYWGQGTLVTVSS
VL: B1 VL with Q3V, V19A, A47P, V108L
notes: humanized, hIgG1
B3: 72B4H4 H2L2 hIgG1 (antibody, V domains shown)
VH: B1 VH with K12V, M48I, E55A, T56G, R65K, R72V, H102D, Y103A, V106M, Y108H
VL: B1 VL with L4M, N28S, G30D, F32Y, V37M, N57R, L58Q, A64S, G97E, G104Q
notes: humanized, hIgG1
B4: 72B4H4 H3L1 hIgG1 (antibody, V domains shown)
VH: QVQLVQSGAEVVKPGASVKLSCKASGYTFTNYWMNWVKQAPGQGLEWIGRIDAYAGETHYNQKFKDRATLTVDKSTSTVYMELSSLRSEDTAVYYCARGYGDAYGMDHWGQGTLVTVSS
VL: DIQMTQSPSSLSASVGDRVTITCRASESVDNYGISFMNWYQQKPGKAPKLLIYAASRQGSGVPSRFSGSGSGTDFTLTISSLQPEDFATYYCQQSKEVPWTFGQGTKVEIK
notes: humanized, hIgG1
B5: 72B4H4 H2L1 hIgG1 (antibody, V domains shown)
VH: B4 VH with L20V, K38R, A68V, L70M, K74T
VL: B4 VL
notes: humanized, hIgG1
B6: 57F8H3F1 H3L4 hIgG1 (antibody, V domains shown)
VH: B2 VH with R40A, I69T, A79V, R84S
VL: B1 VL with Q3V, V19A, A47P, V108L
notes: humanized, hIgG1
B7: 72B4H4 H2L3 hIgG1 (antibody, V domains shown)
VH: B4 VH with L20V, K38R, A68V, L70M, K74T
VL: B4 VL with M4L, Y40F, V62D, S64A, Y91F, Q104G
notes: humanized, hIgG1
B8: 57F8H3F1 H1L4 hIgG1 (antibody, V domains shown)
VH: B1 VH
VL: B1 VL with Q3V, V19A, A47P, V108L
notes: humanized, hIgG1
B9: 72B4H4 H3L4 hIgG1 (antibody, V domains shown)
VH: B4 VH
VL: B4 VL with Q3V, M4L, V19A, Y40F, A47P, V62D, S64A, Y91F, Q104G, V108L
notes: humanized, hIgG1
B10: 57F8H3F1 H2L1 hIgG1 (antibody, V domains shown)
VH: B1 VH with K12V, M48I, R72V
VL: B1 VL with L4M, F40Y, D62V, A64S, F91Y, G104Q
notes: humanized, hIgG1
B11: 72B4H4 H4L2 hIgG1 (antibody, V domains shown)
VH: B4 VH with A40R, T69I, V79A, S84R
VL: B4 VL with Y40F, V62D, Y91F
notes: humanized, hIgG1
B12: 72B4H4 H3L2 hIgG1 (antibody, V domains shown)
VH: B4 VH
VL: B4 VL with Y40F, V62D, Y91F
notes: humanized, hIgG1
B13: 57F8H3F1 H3L1 hIgG1 (antibody, V domains shown)
VH: B2 VH with R40A, I69T, A79V, R84S
VL: B1 VL with L4M, F40Y, D62V, A64S, F91Y, G104Q
notes: humanized, hIgG1
B14: 57F8H3F1 H3L3 hIgG1 (antibody, V domains shown)
VH: B2 VH with R40A, I69T, A79V, R84S
VL: B1 VL
notes: humanized, hIgG1
B15: 57F8H3F1 H4L2 hIgG1 (antibody, V domains shown)
VH: B2 VH
VL: B1 VL with L4M, A64S, G104Q
notes: humanized, hIgG1
B16: 72B4H4 H4L1 hIgG1 (antibody, V domains shown)
VH: B4 VH with A40R, T69I, V79A, S84R
VL: B4 VL
notes: humanized, hIgG1
B17: 57F8H3F1 H4L3 hIgG1 (antibody, V domains shown)
VH: B2 VH
VL: B1 VL
notes: humanized, hIgG1
B18: 72B4H4 H1L3 hIgG1 (antibody, V domains shown)
VH: B1 VH with E55A, T56G, R65K, H102D, Y103A, V106M, Y108H
VL: B4 VL with M4L, Y40F, V62D, S64A, Y91F, Q104G
notes: humanized, hIgG1
B19: 57F8H3F1 H3L2 hIgG1 (antibody, V domains shown)
VH: B2 VH with R40A, I69T, A79V, R84S
VL: B1 VL with L4M, A64S, G104Q
notes: humanized, hIgG1
B20: 57F8H3F1 H2L4 hIgG1 (antibody, V domains shown)
VH: B1 VH with K12V, M48I, R72V
VL: B1 VL with Q3V, V19A, A47P, V108L
notes: humanized, hIgG1
B21: 72B4H4 H4L3 hIgG1 (antibody, V domains shown)
VH: B4 VH with A40R, T69I, V79A, S84R
VL: B4 VL with M4L, Y40F, V62D, S64A, Y91F, Q104G
notes: humanized, hIgG1
B22: 57F8H3F1 H4L1 hIgG1 (antibody, V domains shown)
VH: B2 VH
VL: B1 VL with L4M, F40Y, D62V, A64S, F91Y, G104Q
notes: humanized, hIgG1
B23: 72B4H4 H1L4 hIgG1 (antibody, V domains shown)
VH: B1 VH with E55A, T56G, R65K, H102D, Y103A, V106M, Y108H
VL: B4 VL with Q3V, M4L, V19A, Y40F, A47P, V62D, S64A, Y91F, Q104G, V108L
notes: humanized, hIgG1
B24: 57F8H3F1 H2L3 hIgG1 (antibody, V domains shown)
VH: B1 VH with K12V, M48I, R72V
VL: B1 VL
notes: humanized, hIgG1
B25: 72B4H4 H1L2 hIgG1 (antibody, V domains shown)
VH: B1 VH with E55A, T56G, R65K, H102D, Y103A, V106M, Y108H
VL: B4 VL with Y40F, V62D, Y91F
notes: humanized, hIgG1
B26: 72B4H4 H3L3 hIgG1 (antibody, V domains shown)
VH: B4 VH
VL: B4 VL with M4L, Y40F, V62D, S64A, Y91F, Q104G
notes: humanized, hIgG1
B27: 72B4H4 H1L1 hIgG1 (antibody, V domains shown)
VH: B1 VH with E55A, T56G, R65K, H102D, Y103A, V106M, Y108H
VL: B4 VL
notes: humanized, hIgG1
B28: 72B4H4 H2L4 hIgG1 (antibody, V domains shown)
VH: B4 VH with L20V, K38R, A68V, L70M, K74T
VL: B4 VL with Q3V, M4L, V19A, Y40F, A47P, V62D, S64A, Y91F, Q104G, V108L
notes: humanized, hIgG1
B29: 72B4H4 H4L4 hIgG1 (antibody, V domains shown)
VH: B4 VH with A40R, T69I, V79A, S84R
VL: B4 VL with Q3V, M4L, V19A, Y40F, A47P, V62D, S64A, Y91F, Q104G, V108L
notes: humanized, hIgG1

Biological target: T1, human interleukin 13 receptor subunit …
Assay: FACS on A375 cells
Method: A375 cells that endogenously expressed IL-13RA2, were harvested from flasks. 100 μl of 1×10⁶ cells/ml of cells were incubated with primary humanized antibodies in 4-fold serial dilutions starting from 200 nM to 0.003 nM for 30 minutes on ice. After being washed with 200 μl of FACS buffer twice, cells were incubated with secondary antibody for 30 minutes on ice. Cells were washed with 200 μl of FACS buffer twice and analyzed by FACS.

EC50 [nM] | Top (MFI) | Binder
0.81 | 7540 | B1
0.91 | 7270 | B2
1.48 | 8700 | B3
1.14 | 8830 | B4
2.75 | 8360 | B5
1.3 | 7610 | B6
0.83 | 8420 | B7
0.94 | 7820 | B8
1.36 | 8770 | B9
0.38 | 6910 | B10
0.976 | 8610 | B11
1.44 | 8550 | B12
0.71 | 8160 | B13
1.62 | 7610 | B14
0.75 | 7340 | B15
0.552 | 8270 | B16
0.8 | 7180 | B17
1 | 8900 | B18
1.25 | 7420 | B19
1.01 | 7140 | B20
0.811 | 8470 | B21
0.42 | 7350 | B22
0.98 | 9040 | B23
0.92 | 7010 | B24
0.81 | 8540 | B25
1.66 | 8780 | B26
0.54 | 8440 | B27
1.18 | 8630 | B28
1.18 | 8180 | B29
